Test [1] concerns the target 14-3-3ζ (UniProt P63104). Description: PACS-2 co-immunoprecipitation, 14-3-3ζ-myc western blot. Conditions: reference: wild-type HA-PACS-2; sites S437.
Test [2] has as its target 14-3-3σ (UniProt P31947). Description: GST pull-down, 14-3-3σ-His6 western blot. The settings on record: reference: wild-type GST-PACS-2MR; sites S437. On the technique in general: Immunoblotting shows a protein as a band on a membrane.

Take “PACS-2 (from UniProt Q86VP3) PACS-2 S437A”: the “binding against the reference” value in test [1] is “lost”. Turning to “PACS-2 middle region (MR) (from UniProt Q86VP3) S437A”, the “binding against the reference” value in test [2] is “lost”.

The record behind these values is paper PMC2744858.
